From the nanobody polyreactivity screen of Harvey et al. (2022)

Experiment: yeast display, Sf9 membrane polyspecificity reagent, FACS + sequencing; frameworks hold sequencing errors
Outline: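 Nanobodies came from a synthetic yeast display library in Saccharomyces cerevisiae BJ5465, induced with galactose for 36–48 hours and stained for 1 hour at 4 °C with 10% biotinylated, detergent-solubilized Sf9 membrane reagent. Cells were enriched on streptavidin microbeads and then FACS-sorted, with low and high (top ~1%) gates set on anti-HA fluorescence for expression and streptavidin fluorescence for reagent binding. Each polyreactivity label reflects the gate a clone came from. Genes were amplified by colony PCR, sequenced by MiSeq 2 × 250 and filtered by CDR length.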

Row | Sequence | polyreactivity (PSR sort gate)
1 | QVQLVESGGGLVQAGGSLRVSCAASGSTFTAYAMGWYRQAPGKERELVAAINWSGGTTYYADSVKGRFTISRDNAKNTVYLQMNSLKPEDTAVYYCAVDGNFFGEVRPYDYWGQGTQVTVSS | low polyreactivity
2 | QDQLVESGGGLVQAGGSLRLSCAASGSIFFINAMGWYRQAPGKERELVAAITYSGGSTYYADSVKGRFTISRDNAKYTVYLQMNSLKPEDTAVYYCAADQYSFLPWIAWLLDDYWGQGTQVTVSS | low polyreactivity
3 | QVQLVESGGGLVQAGGSLRLSCAASGRTFSLYAMGWYRQAPGKERELVAAISWGGGSTYYADSVKGRFTISRDNAKNTVYLQMNSLKPEDTAVYYCAADDVSATKYEDDYWGQGTQVTVSS | low polyreactivity
4 | QVQLVESGGGLVQAGGSLRLSCAASGGIFGRYDMGWYRQAPGKERELVAAISKRGGSTYYADSVKGRFTISRDNAKNTVYLQMNSLKPEDTAVYYCNAAQSVELGYDYWGQGTQGTVSS | high polyreactivity
5 | QVQLVESGGGLVQAGGSLRLSCAASGSTFERYVMGWYRQRQGKKWSWLPVLNHNGGSTYYADSVKGRFTISRDNAKNSVYLQMNSRKPEYTAVYYCAKDGLNESQFPGNLRDYWGQGTQVNVSS | low polyreactivity
6 | QVQLVESGGGLVQAGGSLRLSCAASGFTFANNAMGWYRQAPGKERELVAAITSSGTRTYYADSVKGRFTISRDNAKNTVYLQMNSLKPEDTAVYYCAADKPGRPSRMYYWGQGTQVTVSS | high polyreactivity
7 | QVQLVESGGGVVQAGGTLRLSCAASGINFIDNTMGWYRQAPGKEREFVATISANSDGTYYADSVKRRFTISRDNAKKTVYLQMNSLKPEETAVYYWGQGTQVTVSS | low polyreactivity
8 | QDQLVQSAGGLVQAGGSLRLSCAASGRTIRAYAMGWYRQAPGKEREFVAAITWGDGSTYYADSVNGRFTISRDNAKNTVYLQMKSLKPEDTAVYYCATVQSCRVRTYDYWGQGTQVSVSS | high polyreactivity
9 | QVQLVESGGGLVQAGGSLRLICAASGFTFTDYAMGWYRQAPGKERELVAVIDSGGSTYYADSVKGRFTISRDNAKNTVYLQMNSLKPEDTAVYYCAAYNGTAPSEDYLGQGTQVTVSS | low polyreactivity
10 | QDQLVESAGGLVQAGGSLRLSCAATASTFHLYAMGWYRQAAGKERELVASIRWSGGSTYYADSVKGRFTISRDNAKNTVYLQMNSLKPEDTAVYYCASEAVPYWSWGRPMYYWGQGTQVTVSS | high polyreactivity
11 | QVQLVESGGGLVQAGGSLRLSCDASGRIFGMYAMGWYRQSPGKEREFVAAISWRTGSTYYADSVKGRFTISRDNAKNTVYLQMNSLKPEDTAVYYCAAESAAKYGYWRQGTQVTVSS | high polyreactivity
12 | QVQLVESGGGLDQAGGSLRLTCAASGRTIGSYAMGWYRQAPGKERELVAAISYSGGSTYYADSVKGRFTISRDNAKNTVYLQMNSLKPEDTAVYYCAKSWRYSIIQSYRAGYNYWGQGTQVTVSS | high polyreactivity
13 | QVQLVESGGGLVQAGGSLRLSCAASGRIFYFYAMGWYRQAPGKERELVAAINIGGSTNYADSVKGRFTISRDNAKNTVYLQMNSLKPEDTAVYYCNAEAYSRSDYYRYDYWGQGTQVTVSS | low polyreactivity
14 | QVQLVESGGGLVQAGGSLRLSCAASGSIFKSYAMGWYRHAPWKERELVASISSRGSSTNYADSVKGRFTISRDNAKITVYLQMNSLKPEDTEGYYCAAEVYRGKYWSTYRGGDYWGQGTQVTVSS | high polyreactivity
15 | QVQHVESGGGLVQAGGSLRLSCAASGLTFKANAMGWYRQAPGKERELVAAITWSGTSTYYADSVKGRFTISRDNAKNTVYLQMNRLKPEDTAVYYCNKPYDVWYHDYDYWGQGTQVTVSS | low polyreactivity
16 | HVQLVESGVGLVQAAGILRLSCAASGRTFSVYVMGWYRQATGKERELVAAISTSGARTYYADSVKGRFTISRDHAKNTVFLQMNSLKPEATAVYYCGARAIYKSKYDYWGHGTQVTVSS | high polyreactivity

Row | Sequence | polyreactivity (PSR sort gate)
17 | QVQLVESGGGLVQAGGSLRLSCAASGRIFRYNAMGWYRQAPGKERELVATISKSGGSTYYADSVKGRFTISRDNANYTVYLQMNSLKPEDTAVYYCAASYHPWLADYGYWGQGTQVSVSS | low polyreactivity
18 | QVQLVESGGGLVQAGGSLRLSCAASGSTFDNYAMGWNRQAPGKERELVADITWSGGSTYYADSVKGRFTSSRDNAKNTVYLQMNSLKPEDSAVYYCNSAGYYTKYDYWGQGTQVTVSS | low polyreactivity
19 | QVQLVESGGGLVQAGGSLRLSCAASGSIFRNYAMGWYRQAPGKERELVAAITRGGGSTYYADSVKGRFTISRDNAKNTVYLQMNSLKPEDTAVYYGAAGSTRERNPRYGYWGQGTQVTVSS | high polyreactivity
20 | QVQLVESGGGLVQAGGSLRLSCAASGFIFYYNAMGWYRQAPGKERELVAAISSSAGSTYYADSVKGRFTISRDNAKNTVYLQMNSLKPEDTAVYYCDGSRPPNTSNTGYGSWGQGTQVTVSS | low polyreactivity
21 | QVQLVESGGGLVQAGGSLRLSCAASGRIFGIYAMGWYRQAPGKERELVAAINSGDSTYADSVKGRFTISRDNAKNTVYLQMNSLKPEDTAVYYCAAEESTSSWSINDYWGQGTQVNVSS | low polyreactivity
22 | QVQLVESGGGLVQAGGSLRLSCAASGRIFLFYAMGWYRQAPGKERELVAGIRSGGSTNYADSVKGRFTISRDNAKNTVYLQMNSLKPEDTAVYYCAAASYFVYPRLEGYWGQGTQVTVSS | low polyreactivity
23 | QVQLVESGGGLVQAGGSLRLSCAASGRTLARNAMGWYRQAPGKERELVASINGRTTRTYYADSVKGRFTISRDNAKNTVYLQMNSLKPADTAVYYCAAAVRYRKYNYWGQGTQVTVSS | high polyreactivity
24 | QVQLVESGGGLVQAGGSLRLSCAASGFIFVYYAMGWYRQAPGKERELVAAISKRGGNTYYADSVKGRFTISRDNAKNTVYLQMNSLKPEDTAVYYCAAGFTTRRGEYNYWGQGTQVTVSS | high polyreactivity
25 | QVQLVESGGGLVQAGGSLRLSCAASGYTFVGYAMGWYRQAPGKERELVASISTGDSTYYADSVKGRFTISRDNAKNTVYLQMNSLKPEDTAVYYCAADFWEYEYPYDYWGQGTQVTVSS | low polyreactivity
26 | QVQLVESGGGLVQAGGSLRLSCAASGLTFDTYAMGWYRQAPGKERELVAAISIGGRTNYADSVKGRFTISRDNAKNTVYLQMNSLKPEDTAVYYCAVGAVVPGRRRRTYYYWGQGTQVTVSS | high polyreactivity
27 | QVQLVESGGGLVQAGGSLRLSCDASGRTLGGYTMGWYRQAPGKERELVAAITTGGSTNYADSVKGRFTISRDNAKNTVYLQMNSLKPEDTAVYYCATDLVFDKRYWYDYWGQGTQVTVSS | low polyreactivity
28 | QVQLVESGGGLVQAGGSLRLSCAASGRIFSGYAMGCYRQAPGKERELVAAITSRSGSTYYADSVKGRFTISRDNAKKTVYLQMNSLKPEDTAVYYCAAEYVRFYWYTSDYWGQGTQVTVSS | low polyreactivity
29 | QVQLVESGGGLVQAGGSLPLSCAASGRIFNYYTMGWYRPAPGKERELVAAISTRGGRTYYADSVKGRFTISRDNAKNSVYFQMNSLKPEDTAVYYCARDIRIRIVYDGIYNYWGQGTQVTVSS | high polyreactivity
30 | QVQLVESGGGLVQAGGSLRLSCAASGSTFPRNAMGWYRQAPGKERELVAGISRGSSTNYADSVKGRFTISRDNAKNTVYLQMNSLKPEDTAVYYCAAALSVTARLDYWGQGTQVTVSS | low polyreactivity
31 | QVQLVESGRGLVQAGGSLRLSCAASGSTLATYTMGWYRQAPGKERELVPAISFGGSTYYADSVKGRFTISRDNAKNTVYLQMNSLKPEDTAVYYCAVYGDSYWGAYYYSDGYWGQGTQVTVSS | low polyreactivity
32 | QVQLVESGGGLVQAGGSLRLSCDASGSIFSKYVMGCYRQAPGKERELVASITSGGSTNYADSVKGRFTISRDNAKNTVYLQMTSQKPEDTAVYFCAARAINTWYRSGVDDWCQGTQVTVSS | low polyreactivity
